In the supplement of paper PMC9170038:

System: MS2 coat protein
Assay: apparent KD of MS2 coat protein; designed switch direction (-1 OFF switch, 1 ON switch): -1; higher = weaker reporter binding
Procedure, shortened: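 Apparent KD, taken as the median over clusters for each design, was obtained by curve-fitting normalised cluster fluorescence. Designed RNA switches had been transcribed on Illumina chips by stalled E. coli RNA polymerase and titrated with SNAP-549-labelled MS2 coat protein, doubling from 0.7 or 1.5 nM to 3 µM.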

[1] = Eterna round: R95, input ligand: FMN 200 uM
[2] = Eterna round: R95, input ligand: microRNA oligo, concentration not stated
[3] = Eterna round: R95, input ligand: none
[4] = input ligand: microRNA oligo, concentration not stated

Sequence	apparent KD of MS2 coat protein [1] [nM]	apparent KD of MS2 coat protein [2] [nM]	apparent KD of MS2 coat protein [3] [nM]	apparent KD of MS2 coat protein (input ligand: FMN 200 uM) [nM]	apparent KD of MS2 coat protein (input ligand: none) [nM]	apparent KD of MS2 coat protein [4] [nM]
GGAAAACAUGAGGAUCACCCAUGUGAGGAUAUGCGUACGUUGUCCGUAGGCGACGUGCGCAGAAGGCGCAAGAG [Mat - Mod of JL D89] (puzzle: Exclusion 1)	57.4	48.5	58.1			
GGAACGCGAGGAUAUACAUAGCCGGAAACGGCAAUAGCCUCACAUGAGGAUCACCCAUGUAGAAGGCGCGGAGA [AK-MS2ROC-r4-exclusion2-24] (Eterna round: R97, puzzle: Exclusion 2)				119	17.2	
GGAAGAAAGCGAGGAUAUCGAUAAGAAGAAGAAGAUAAGGUGACAUGAGGAUCACCCAUGUAAUACGAGAAGGCGCGACCUGCG [i'd better go back to my homework] (Eterna round: R96, puzzle: Exclusion NG 2)				215	197	147
GGACAUAAAGUCAGGAUAUUAAUGCGAACAAGCGAUGAGAAGGGACAUGAGGAUCACCCAUGUGAUUCUCAUCA [Edvebe] (Eterna round: R97, puzzle: Brourd's mod of Exclusion 4)				17.6	16.5	
GGAGAGUCAGGAUAUCGAAGGUAGUGGAGAGGAGUGUGGUACGAGAAGGGACAUGAGGAUCACCCAUGUAGGUG [JR_Exclusion4)Sub010] (puzzle: Exclusion 4)	306	423	478			
GGAGGAAGAGAGGAUAUGGAGGAGAGGAGAAGACCAGAAGGUUCAACAUGAGGAUCACCCAUGUAUGAUCCUCA [AK-MS2ROC-r4-exclusion6-1.1] (Eterna round: R97, puzzle: Exclusion 6)				789	694	
GGAGGACGAGCAGGAUAUUUUUACAUGAGGAUCACCCAUGUGUAAUCAGGGUAAUCCUCCGCCGAAAAGAAGGGUUCGGAAGAA [Mat - Exclusion NG 2 - Mod of JL - D83] (Eterna round: R96, puzzle: Exclusion NG 2)				2750	67.6	16.9
GGAUAAAACUGAGGAUAUGCGUAUAGAUAGAGAGCAGAAGGCAGACAUGAGGAUCACCCAUGUGAGUUCUCGAUAAGAAACACG [Prohibition 58 - Jieux - Exclusion NG 1] (Eterna round: R96, puzzle: Exclusion NG 1)				118	35.2	36.1
GGAUAGUGAGGAUAUACCCAGAUUGAUGGACACGUCAGCGGGUAGAAGGCACAUGAGGAUCACCCAUGUGGCCU [Eternabot (L1) Solution 22] (Eterna round: R97, puzzle: Exclusion 4)				18.4	14.1	
GGAUCGAAUGUGAGGAUAUACCACUGGAUACAGUGGUAGAAGGCACAUGAGGAUCACCCAUGUCUCUACGAUCC [Fiskers BMX 4 - 43] (puzzle: Brourd's mod of Exclusion 4)		21				
GGAUCGAAUGUGAGGAUAUGCAGGUCCUUGGAUCUGCAGAAGGCACAUGAGGAUCACCCAUGUGAUACCGAUCC [Mat - Exclusion 4 - Eli Mod - D42] (Eterna round: R97, puzzle: Brourd's mod of Exclusion 4)				148	455	
GGAUCGAGUGUGAGGAUAUACCUAUGGAAACAUAGGUAGAAGGCACAUGAGGAUCACCCAUGUGUUCCCGGUCC [Mat - Exclusion 4 - Eli Mod - D16] (Eterna round: R97, puzzle: Brourd's mod of Exclusion 4)				485	50.8	
GGAUCGAGUGUGAGGAUAUACCUAUGGAUACAUAGGUAGAAGGCACAUGAGGAUCACCCAUGUUCCAACGGUCC [Eli bmx4 4.11] (Eterna round: R97, puzzle: Brourd's mod of Exclusion 4)				817	108	
GGAUCUUGGGUCAGGAUAUGCUGAUAUUUUUGUCAGCAGAAGGGACAUGAGGAUCACCCAUGUGCUUGGUUUUG [Magic-16] (puzzle: Brourd's mod of Exclusion 4)		12.6				
GGAUGGCGAGGAUAUACAUGAGGAUCACCCAUGUGAGAGAAAUAAGUGAGGAAGAAAAGUAGAAGGCGCAGACG [Mat - Exclusion 3 - Mod of Salish D45] (puzzle: Exclusion 3)	11.1	55.7	53.1			
GGAUUACAUGAGGAUCACCCAUGUCAGGAUAUACGAUCAUAUGCCGAAAGGCAUAUGAGUAGAAGGGACAAUAU [AK-MS2ROC-r4-exclusion1-2.0] (Eterna round: R97, puzzle: Exclusion 1)				46.2	36.1	
GGAUUCCAGUGAGGAUAUCCAAAUAAAAGCCAUGGAGAAGGCACAUGAGGAUCACCCAUGUAGGGCAAUAGCAGCGACCACUGC [Raqube] (Eterna round: R96, puzzle: Exclusion NG 1)				59.4	29.3	27.6
GGCACACAUGAGGAUCACCCAUGUCAGGAUAUGUGGCGAUCGUCGAAAGACGAUAGCCACAGAAGGGACAGGCC [Eli x1 4.25] (Eterna round: R97, puzzle: Exclusion 1)				68.7	49.8	
GGCACACAUGAGGAUCACCCAUGUGAGGAUAUGAGGCGAUCGUCGAAAGACGAUAGCCUCAGAAGGCACAUGCC [Eli x1 4.10] (Eterna round: R97, puzzle: Exclusion 1)				42.9	16	
GGCACACAUGUAGGAUAUCUGCACGUGUAGUGCAGAGAAGGACAUGAGGAUCACCCAUGUAAUUAAGAUCAAUUAUUAAGUGCC [ENG1/3-A3] (Eterna round: R96, puzzle: Exclusion NG 1)				481	58.9	48.6
GGCAUGUAAGGAUAUGCCACUGAGUGCUUUGCGCUCAGGAAGCAGAAGGUACAUGAGGAUCACCCAUGUGAUAA [jl-ex4-4.52 ViennaUCT mod] (Eterna round: R97, puzzle: Exclusion 4)				109	714	
GGCCCGCGCGGGCCCGGGCCCGGGACAUGAGGAUCACCCAUGUAGGAUAUCCGGCCCGCCGGGCCGGAGAAGGACAUGGGCCCG [-48.9, -45.2 kcal, 17% A] (Eterna round: R96, puzzle: Exclusion NG 3)				34.1	16.9	11.1
GGCCCUAAGGUCAGAUCCACAAGCUUUUUGCUCGUUUUAACAUGAGGAUCACCCAUGUCUAGUGGAUUUGAUCCUCU [Sensor v3, turn-off variant 2 (MOD of Indiso v.8)] (puzzle: Sensor v3, turn-off variant 2)	27.9	9.69	33.5			
GGCCGAGAACAGCUCCACGCUACCCUCGGCCGCUCAUUUACAUGAGGAUCACCCAUGUUUUUUGCUUGUCUUGUUUC [Xeisrarabi] (puzzle: Sensor v3, turn-off variant 2)	22.1	94.1	24.1			
GGCCUGUUAGGAUAUUAGUAGUAGUCAGAAAAGACUAUUACUGAGAAGGAACAUGAGGAUCACCCAUGUUGGCC [Mat - Exclusion 4 - Eli Mod - D39] (Eterna round: R97, puzzle: Exclusion 4)				17.2	17.4	
GGCGACCACCUCGUGCACUACAUGAGGAUCACCCAUGUUUUUCGCUCGUCUUAUGCGCCAACCUCCCAAACACUAAG [Gelaesxe] (puzzle: Sensor v3, turn-off variant 1)	34.6	103	35.4			
GGCGGUGCAGGAUAUUGAAAACUACACAUGAGGAUCACCCAUGUUCCUCACCGGUACAAGCAAGAAGGGCGGUGCA [Erxegetiis] (puzzle: Exclusion 5)	18.9	19.4	18.3			
GGCGUGUAUUAGGAUAUUGGAGGGAGGGAGGGCUAAGAAGGAGUAACAUGAGGAUCACCCAUGUAGAGGAAGGG [RHig 2] (Eterna round: R97, puzzle: Exclusion 6)				63.1	95.3	
GGGAAGAACCAACAAGCAAACAUGAGGAUCACCCAUGUAGUAAGAGAAAUUGAGGUGAUUCAGAGAGCUCGACUUAU [AK-miRNA-r3-7.1] (Eterna round: R97, puzzle: Sensor, turn-off variant 1)				367	359	
